Measured values: the supplement of paper PMC9112550, “Optimization of the antimicrobial peptide Bac7 by deep mutational scanning” (BMC Biology, 2022)

Tested on: Escherichia coli TOP10
Experiment: shrunken log2 fold change of peptide-encoding DNA abundance (4.5 h post-induction vs induction); higher = less antimicrobial activity (less host growth inhibition)
Settings: time post-induction: 4.5 h; library: site-saturation at positions 5, 18, 19, 20
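Further: peptides expressed intracellularly from a pBAD plasmid library in pooled LB shake-flask culture, induced with 0.3% L-arabinose, DNA abundance read by NGS, three biological replicates, DESeq2 with apeglm shrinkage.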

Row | Sequence | shrunken log2 fold change
1 | RRIRNRPPRLPRPRPRPIRMPRP | -0.00776
2 | RRIRIRPPRLPRPRPRPPANPRP | -0.0976
3 | RRIRWRPPRLPRPRPRPLDKPRP | 0.352
4 | RRIRYRPPRLPRPRPRPDKFPRP | -0.116
5 | RRIRGRPPRLPRPRPRPCLHPRP | 0.331
6 | RRIRTRPPRLPRPRPRPVFTPRP | -0.105
7 | RRIRERPPRLPRPRPRPAGTPRP | 0.346
8 | RRIRVRPPRLPRPRPRPCQQPRP | 0.00938
9 | RRIRCRPPRLPRPRPRPWRFPRP | 0.145
10 | RRIRLRPPRLPRPRPRPLIRPRP | -0.547
11 | RRIRWRPPRLPRPRPRPELMPRP | 0.0289
12 | RRIRERPPRLPRPRPRPDPYPRP | -0.0291
13 | RRIRNRPPRLPRPRPRPAKIPRP | -0.405
14 | RRIRHRPPRLPRPRPRPIGNPRP | -0.199
15 | RRIRWRPPRLPRPRPRPMVNPRP | -0.0548
16 | RRIRNRPPRLPRPRPRPNKWPRP | -0.155
17 | RRIRFRPPRLPRPRPRPTAGPRP | 0.0761
18 | RRIRKRPPRLPRPRPRPETSPRP | 1.02
19 | RRIRYRPPRLPRPRPRPCWYPRP | -1.03
20 | RRIRVRPPRLPRPRPRPQVRPRP | 0.0179
21 | RRIRMRPPRLPRPRPRPTKQPRP | 0.296
22 | RRIRIRPPRLPRPRPRPFDSPRP | 0.0157
23 | RRIRERPPRLPRPRPRPQWCPRP | -0.262
24 | RRIRHRPPRLPRPRPRPGYFPRP | -0.0725
25 | RRIRERPPRLPRPRPRPNLDPRP | -0.289

Row | Sequence | shrunken log2 fold change
26 | RRIRNRPPRLPRPRPRPHYSPRP | -0.363
27 | RRIRGRPPRLPRPRPRPWIIPRP | -0.121
28 | RRIRRRPPRLPRPRPRPESIPRP | -0.195
29 | RRIRNRPPRLPRPRPRPTTLPRP | -0.294
30 | RRIRMRPPRLPRPRPRPWDSPRP | -0.152
31 | RRIRPRPPRLPRPRPRPNTRPRP | -0.112
32 | RRIRNRPPRLPRPRPRPLRKPRP | -0.099
33 | RRIRGRPPRLPRPRPRPENSPRP | 0.678
34 | RRIRTRPPRLPRPRPRPAMKPRP | -0.125
35 | RRIRWRPPRLPRPRPRPLVFPRP | 0.0454
36 | RRIRHRPPRLPRPRPRPMWIPRP | -0.0176
37 | RRIRMRPPRLPRPRPRPPAFPRP | 0.82
38 | RRIRLRPPRLPRPRPRPIEYPRP | -0.426
39 | RRIRQRPPRLPRPRPRPYLEPRP | -0.332
40 | RRIRHRPPRLPRPRPRPLITPRP | -0.324
41 | RRIRCRPPRLPRPRPRPIHCPRP | -0.0192
42 | RRIRHRPPRLPRPRPRPGYIPRP | -0.176
43 | RRIRPRPPRLPRPRPRPDWQPRP | -0.0976
44 | RRIRPRPPRLPRPRPRPCHEPRP | -0.316
45 | RRIRMRPPRLPRPRPRPWCNPRP | -0.016
46 | RRIRPRPPRLPRPRPRPRVRPRP | 0.217
47 | RRIRNRPPRLPRPRPRPRSVPRP | 0.258
48 | RRIRARPPRLPRPRPRPLQVPRP | 0.151
49 | RRIRVRPPRLPRPRPRPAGIPRP | 0.165
50 | RRIRMRPPRLPRPRPRPWVTPRP | -0.15
